Laboratory results as given in US5789380A, “Agents for inhibiting accumulation of visceral fat” (Nisshin Flour Milling Co., Ltd., priority 1996, dated 1998).

T1: human pancreatic α-amylase (human, UniProt P04746)
T1 sequence: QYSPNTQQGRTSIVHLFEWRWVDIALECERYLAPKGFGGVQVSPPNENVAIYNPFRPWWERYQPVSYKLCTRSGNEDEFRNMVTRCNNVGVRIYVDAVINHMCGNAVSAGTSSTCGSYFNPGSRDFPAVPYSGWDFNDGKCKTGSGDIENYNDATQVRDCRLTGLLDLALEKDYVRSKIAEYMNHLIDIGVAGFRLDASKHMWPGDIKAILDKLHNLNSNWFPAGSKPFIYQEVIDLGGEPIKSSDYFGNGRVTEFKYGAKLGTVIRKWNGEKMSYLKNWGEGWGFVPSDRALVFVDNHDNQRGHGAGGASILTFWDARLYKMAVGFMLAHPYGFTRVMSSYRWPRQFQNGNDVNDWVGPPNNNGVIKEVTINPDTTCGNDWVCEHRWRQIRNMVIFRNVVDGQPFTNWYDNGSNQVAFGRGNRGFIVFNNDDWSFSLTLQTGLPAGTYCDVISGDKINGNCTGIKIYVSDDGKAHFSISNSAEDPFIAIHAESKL


Legend:
[1] = biological target: T1, human pancreatic α-amylase; experiment: cell-based or functional assay
[2] = system: human pancreatic α-amylase; experiment: Determination of inhibitory activity against human pancreatic α-amylase; assay type: biochemical; conditions: 1 U = amount inhibiting 50% of amylase activity, pH 6.9, 37° C., soluble starch
Experimental: The numerical values as given herein for the amylase inhibitory activity are determined by the following method, which are represented in terms of the inhibitory activity value against human pancreatic α-amylase.
Determination of inhibitory activity against human pancreatic α-amylase:
An aqueous solution of a sample and human pancreatic α-amylase were added to 20 mM piperazine-N,N'-bis(2-ethanesulfonic acid) buffer (pH 6.9) containing 50 mM NaCl, 5 mM CaCl2 and 0.02% egg white albumin. The mixture was allowed to stand at 37° C. for 30 min. and then mixed with 0.5 ml of a 1.5% soluble starch solution (pH 6.9). The resulting solution was allowed to react while maintaining at 37° C. for 10 min. and the reaction was then ceased by adding 2.5 ml of a solution (0.08M HCl and 0.4M acetic acid). To 0.2 ml of the reaction solution was added 2.5 ml of an iodine solution (0.05% KI and 0.005% iodine), and the mixture was measured for absorbance at 660 nm. The amylase was used in an amount sufficient to reduce 80% absorbance when no sample solution was contained and the amount of the amylase inhibitor sufficient to inhibit 50% amylase activity at this time was expressed as 1 amylase inhibitory unit (U).

Molecule | Amylase inhibitory activity (U/mg) [1] | Amylase inhibitory activity [2] | Amylase inhibitory activity ([2]; listed as 0.58 AI)
0.26 AIa (other) SGPWMCYPGYAFKVPALPGCRPVLKLQCNGSQVPEAVLRDCCQQLADISEWCRCGALYSMLDSMYKEHGVQEGQAGTGAFPSCRREVVKLTAASITAVCKLPIVIDASGDGAYVCKGVAAYPDA | 26100 U/mg |  | 
0.53 AI: known wheat amylase inhibitor protein composed of two subunits, each identified as SEQ ID NO:4 (protein) chain 1: SGPWMCYPGQAFQVPALPGCRPLLKLQCNGSQVPEAVLRDCCQQLADISEWPRCGALYSMLDSMYKEHGVSEGQAGTGAFPSCRREVVKLTAASITAVCRLPIVVDASGDGAYVCKDVAAYPDA chain 2: SGPWMCYPGQAFQVPALPGCRPLLKLQCNGSQVPEAVLRDCCQQLADISEWPRCGALYSMLDSMYKEHGVSEGQAGTGAFPSCRREVVKLTAASITAVCRLPIVVDASGDGAYVCKDVAAYPDA |  | 3,940 U/mg | less amylase inhibitory activity
0.53 AI (other) SGPWMCYPGQAFQVPALPGCRPLLKLQCNGSQVPEAVLRDCCQQLADISEWPRCGALYSMLDSMYKEHGVSEGQAGTGAFPSCRREVVKLTAASITAVCRLPIVVDASGDGAYVCKDVAAYPDA | 3940 U/mg |  | 
0.26 AIb (other) SGPWMCYPGYAFKVPALPGCRPVLKLQCNGSQVPEAVLRDCCQQLADISEWCRCGALYSMLDSMYKEHGVQEGQAGTGAFPSCRREVVKLTAASITAVCKLPIVIDASGDGAYVCKGVAAYP | 20500 U/mg |  | 
0.28 AI (other) SGPWSWCNPATGYKVSALTGCRAMVKLQCVGSQVPEAVLRDCCQQLADINNEWCRCGDLSSMLRAVTQELGVREGKEVLPGCRKEVMKLTAASVPEVCKVPIPNPSGDRAGVCYGDWCAYPDV | 840 U/mg |  | 
0.19 AI (other) SGPWMCYPGQAFQVPALPACRPLLRLQCNGSQVPEAVLRDCCQQLAHISEWCRCGALYSMLDSMYKEHGAQEGQAGTGAFPRCRREVVKLTAASITAVCRLPIVVDASGDGAYVCKDVAAYPDA | 20300 U/mg |  | 
